Assay: yeast display, Sf9 membrane polyspecificity reagent, FACS + sequencing; frameworks hold sequencing errors
In short: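 A synthetic nanobody library was expressed on Saccharomyces cerevisiae BJ5465 by galactose induction for 36–48 hours. The library was stained for 1 hour at 4 °C with 10% biotinylated, detergent-solubilized Sf9 membrane reagent and enriched with streptavidin microbeads before FACS. Low and high (top ~1%) gates were set on anti-HA fluorescence for expression and streptavidin fluorescence for reagent binding, and each polyreactivity label reflects the gate of origin.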

QVQLVESGGGLVQAGGSLRLSCGASGSFFYFYSMGWYRQAPGKEREVVAAITDGGSTHYADSVKGRFTISRDNAKNTVDLQMNSLKPEDTAVYYCAAQWHYYLGSGYQYDYWGQGTQVTVSS
polyreactivity (PSR sort gate): low polyreactivity

QVQLVESGGGLVQAGGSLRLSCAASGSIFDRYDMGWYRQAPGKERELVAVINWSGGTTYYADSVKGRFTISRDNAKNTVYLQMNSLKPEDTAVYYCAADGSKPYAMDYWGQGTQVTVSS
polyreactivity (PSR sort gate): high polyreactivity

QVQLVESGGGLVQAGGSLRLSCAASGSTFYYNAMGWYRQAPGKERELVAAISKRGGTTSYADSVKGRFTISRDNAKNTVYLQMNSLKPEDTADYYCADQTYLRQYYRYYWGQGTQVTVSS
polyreactivity (PSR sort gate): high polyreactivity

QVQLVESGGGLVQAGVSLRLSCAASGRILHGYAMGWYRQAPGKEREFVAAITSSGGRTYYADSVKGRFTISRDNAKNTVYLQMNSLKPDDTAVYYCAADRPAYRTGDSKYDYWGLGTQVTVSS
polyreactivity (PSR sort gate): low polyreactivity

QVQLVESGGGLVQAGGSLRLSCAASDAMGWYRRAPGKERELVASISNGVSTNYADSVKGRFTISRDNAKNTVYLQMNSLKPEVTAVYYCASDAKTVGRDDLYWYEVEFDYWGQGTQVSVSS
polyreactivity (PSR sort gate): low polyreactivity

QVQLVESGGGLVQAGGSLRLSCAASGSTYYNALGWYRPAPGKERELVAAIRFRSGSTYYADSVKGRFTISRDNAKNTDYVQMNSLKPEDTAVYYCAADNKRSWRYAYNYWGQGTQVTVSS
polyreactivity (PSR sort gate): high polyreactivity

QVQLVESGGGLVQAGGSLRLSCAASGGTLDYNAMGWYRQAPGKERELVAGITSGGGTYYADSVKGRFTISRDNAKNTVYLQMNSVKPEDTAVYYCAARPWRSRYYGGLGRRFDYWGQGTQVTVSS
polyreactivity (PSR sort gate): high polyreactivity

QVQLVESGGGLLQAGGSLRLSCAASGSISGYYAMGWYRQAPGKERELVASIRYTGARTYYADSVKGRFTISRDNAKNTVYLQMNSLKPEDTAVYYCAADVKRDRVWGGDYWGQGTQVTVSS
polyreactivity (PSR sort gate): low polyreactivity

QDQLVESGGGLVQAGGSLRLSCAASGRISTYTMGWYRQAPGKERELVATISTDASTNYADSVKGRFTISRDNAKNTVYLQMNSLRPEDTAVYYCAAVIVNQDYDYWGQGTQVTVSS
polyreactivity (PSR sort gate): low polyreactivity

QVQLVESGGGLVQAGGSLRLSCAASGFIFYSYAMGWSRQAPGKERELVAAISSTGTSTYYADSVKGRFTISRDNAKNTVYLQMNSLKPEDTAVYYCNAGYAFDPDETYDYWGQGTQVTVSS
polyreactivity (PSR sort gate): low polyreactivity

QVQLVESGGGLVQAGGSLRISCAASGSTFSPYAMGWYRQAPRKERELFAAISASGGGTYYADSVKGRFTISRDNAKNTVYLQMNSLKPEDTAVYYCARDYGWDISKGRYGYWGQGTQVTVSS
polyreactivity (PSR sort gate): low polyreactivity

QVQLVESGGGLVQAGGILRLSCAASGFIFVDYVMGWSRQAPGKERELVAAINRNGGRPYYADSVKGRFTISRDNEKNTVYLQMNRLKPEDTAVYYCAAVYRSDRYHWYYYWGQGTQVTVSS
polyreactivity (PSR sort gate): high polyreactivity

QVQLVESRGVLVQAGGSLRLSCAGSGSTILRYALGWYRQAPGKERELVAAINWSGGGTSYADSVKGRFTISRDNAKNTVYFQMNSLKPEDTAVYYCAAYFRYSNYWSEYWGQGTQVTVSS
polyreactivity (PSR sort gate): high polyreactivity

QVQRVESWGGLVQAGGSLRLSCAASGSTFEYNAMGWNRQAPGKEREFVAAISRTGSRTYYADSVKGRFTISRDNAKNTVYLQMNSLKPEDTAVYYCARVKSRLQVGYYYWGQGTQVTVSS
polyreactivity (PSR sort gate): high polyreactivity

QVQLVESGGGLVQAGGSLRLSCAASGSIFPGYAMGWYRQAPGKERELVATITWSGGSTYYADSVKGRFTISRDNAMNTVYLQMNSLKPEDTAVYYCNADSNWYYQLNYYGLYDYWGQGTQVTVSS
polyreactivity (PSR sort gate): low polyreactivity

QVQLVESVGGLGQAGGSLRLSCASSGFTFARYAMAWYIQAPGKERELVAAISGSGSTYYADSVKGRFTISRDNAKNSVYLQMNSLKTEDTAVYYCNAGNFGRFGFWGQGTQVTVSS
polyreactivity (PSR sort gate): high polyreactivity

QVQLVESGRGLVQAGGSLRLSCAASGSTFHGYPMGWYRQEPGKERELVAAITSGDSTNYADSVKGRYTISRDNAKNTVYLQMNSLKPEDTAVYYCAALQADRDRYPEFDLMDYWGQGTQVTVSS
polyreactivity (PSR sort gate): low polyreactivity

QVQLVESGGGLVQAGGSLRLSCAASGITFGRNTMGWYRQAPRKERELVAAIDSGGNTYADSVKGRFTISRDNAKNTVYLQMNSLKPEDTAVYYCAVDGGEFSSYGYWGQGTQVTVSS
polyreactivity (PSR sort gate): low polyreactivity

QVQLVESGGGLVQAGGSLRLSCAASGSIFLLYAMGWYRQAPGKERELVARISWSGDNTRYADSVKGRFTISRDNEKNTVYLQMNSLKPEDTAFYYCNAVTFSWDYGYWGQGSQVTVSS
polyreactivity (PSR sort gate): low polyreactivity

QVQLVESVGGLVQAGGSLRLSCAASGFIFYQNAMGWYRQAPGKERELVAAISTTGSRTYYADSVKGRFTISRDNAKNTVYLQMNSLKPEDTAVYYCNAPRRVNYDYWGQGTQVTVSS
polyreactivity (PSR sort gate): high polyreactivity

QVQLVESGGGLVQAGGSLRLSCAASGRTFGANVMGWYRQAPGKERELVARISNGGRTSYADSVKARFTISRDNAKNPVYLQMNSLKPEDTAVYYCAALVVNVFPRYGYWGQGTQVTVSS
polyreactivity (PSR sort gate): high polyreactivity

QVQLVESGGGLVQAGGSLRLSCAASGIIFKEYALGGYRQAPGKERELVARITGSTGSTYADSVNGRFTISRDNAKNTVYLQMNSLKPEDTAVYYCAKYIGRGERLSDTRYGLDYWGQGTQVSVSS
polyreactivity (PSR sort gate): low polyreactivity

QVQLVESGGGLVQAGGSLRLSCAASGSTFYIYAMGWYRQAPGKERELVAAISGRGGSTYYADSVKGRFTISRDNAKNTVYLQMNSLKPEDTAVYYCATSLRVRRSSRDYWGQGTQVTVSS
polyreactivity (PSR sort gate): high polyreactivity

QVQLVESGGGLVQAGGSLRLSCAASGIIYIGNAMGWYRQAPGKERELVAAITYTGGSTYYADSVKGRFTISRDNAKNTVYLQMNSLKPEDTAVYYCDFDRTHLEDDYWGQGTQVTVSS
polyreactivity (PSR sort gate): low polyreactivity

QVQLVESGGGLVQAGGSLRLSCAASGSTFQYYAMGWYRQAPGKEREFVAAIHWDGGRTYYADSVKGRFTISRDNAKNTVYLQMNSLKPEDTAVYYCAAYTRYKMDYWGQGTQVTVSS
polyreactivity (PSR sort gate): high polyreactivity

QVQLVESGGGLVQAGGSLRLSCASSGTIFKYSAMGWYIQAPGKEREFVAGISWSGGRTYYADSVKGRFTISRDNAKITVYLHMNSLKPEDTAVYYCARVRLTSYGYYSWGQGTQVTVSS
polyreactivity (PSR sort gate): high polyreactivity

QVQLVESVGGLVQAGGSLRLSCAASGFTFHLYAMGWYRPAPGKERELDAAISQSGDSTYYADSVKGRFTISRDNAKNTVYLQMNSLKPEDTAVYYVNADNDGVVWSYPFDFDYWGQGTQVTVSS
polyreactivity (PSR sort gate): low polyreactivity

QVQLVESGGGLVQAGGSLRLSCAASGSTLVIYAMGWSRQAPGKEREFVAAIRWSTGRTYYADSVKGRFTISRDNAKNTVYLQMNSLKPEDTAVYYCNASYWAPNSLPDGFRYDSWGQGTQVTVSS
polyreactivity (PSR sort gate): high polyreactivity

QVQLVESGGGLVQAGGSLRLSCAASGRTFNIYAMGWYRQAPGKERELVAAITWRSGSTYYADSVKGRFTISRDNAKNTVYLQMNSLKPEDTAVYYCAAEQWSSVPEFDYWGQGSQVTVSS
polyreactivity (PSR sort gate): high polyreactivity

QVQLVESWGGLVQAGGSLRLSCDASGSTLYHNVMGWYRQAPGKERDLVASIDTGDSTNYADSVKGRFSISRDNAKNTVYLQMNSLKPEDTAVSYCNADSYTALNNRGYDYWGLGTQVTVSS
polyreactivity (PSR sort gate): low polyreactivity

QVQLVESGGGLVQAGGSLRLICAASGSILTHYAMGWYRQAPGKERELVAAITWRGGSTYYADSVKGRFTISRDNAKNTVYLQMNSLKPEDTAVYYCNADYFGGGDYWGQGTQVTVSS
polyreactivity (PSR sort gate): low polyreactivity

QVQLVESGGGLVQAGGSLRLSCAASGSTFLYVMGWYRQAPGKERELVAAISESGGSTYYADSVKGRFTISRDNAKNTVYLQMNSLKPEDTAVYYCAADLQTGLQYRYYRVDYWGQGTQVTVSS
polyreactivity (PSR sort gate): low polyreactivity
